According to PMC11833279, “Versatile Features of an Antibody Mimetic Peptide and Its Variants” (Journal of Peptide Science, 2025):
Non-standard residues stand in square brackets, D forms with d. *: point of attachment. Biotin = O=C1N[C@H]2[C@H](CS[C@H]2CCCCC(=O)*)N1; Ahx = NCCCCCC(=O)O; βAla = NCCC(=O)O

Legend:
[1] = molecular target: T1, HIV‐1 envelope glycoprotein gp120, strain HxBc2 (HIV-1 strain HxBc2, UniProt P04578 33-511); assay: ELISA; gp120 HxBc2 coated (1.4 μg/mL, 0.1 M phosphate buffer pH 7.4, overnight 4°C), blocked with Ficoll 400; biotinylated peptide in serial threefold dilutions from 400 nM, overnight 4°C; detected with anti-biotin peroxidase; settings: both partners purified
[2] = molecular target: T1, HIV‐1 envelope glycoprotein gp120, …; assay: cell-based or functional assay

Binder	EC50 [1] [nM]	neutralisation of HIV-1 NL4-3 infection, SEAP reporter CEMx174 cells, IC50 [2] [µM]
Ac-GYKFSNFVIHWG[βAla]G[Ahx]GK(Biotin)G[Ahx]SVGPYSWDDSPQDNYMDS-NH2 (not fully specified; printed as Ac‐GYKFSNFVIHW‐GBGXG‐K*‐GX‐SVGPYSWDDSPQDNYMDS‐NH_2_) [H1H3s‐R28K]	7.86 ± 1.35	
Ac-GYRFSNFVIHWG[βAla]G[Ahx]GK(Biotin)G[Ahx]SVGPYSWDDSPQDNYMDS-NH2 (not fully specified; printed as Ac‐GYRFSNFVIHW‐GBGXG‐K*‐GX‐SVGPYSWDDSPQDNYMDS‐NH_2_) [H1H3s]	6.46 ± 1.5	6.3
Ac-G[dY][dR][dF][dS][dN][dF][dV][dI][dH][dW]G[βAla]G[Ahx]G[dK](Biotin)G[Ahx][dS][dV]G[dP][dY][dS][dW][dD][dD][dS][dP][dQ][dD][dN][dY][dM][dD][dS]-NH2 (SMILES CC[C@@H](C)[C@@H](NC(=O)[C@H](NC(=O)[C@@H](Cc1ccccc1)NC(=O)[C@@H](CC(N)=O)NC(=O)[C@@H](CO)NC(=O)[C@@H](Cc1ccccc1)NC(=O)[C@@H](CCCNC(=N)N)NC(=O)[C@@H](Cc1ccc(O)cc1)NC(=O)CNC(C)=O)C(C)C)C(=O)N[C@H](Cc1c[nH]cn1)C(=O)N[C@H](Cc1c[nH]c2ccccc12)C(=O)NCC(=O)NCCC(=O)NCC(=O)NCCCCCC(=O)NCC(=O)N[C@H](CCCCNC(=O)CCCC[C@@H]1SC[C@@H]2NC(=O)N[C@@H]21)C(=O)NCC(=O)NCCCCCC(=O)N[C@H](CO)C(=O)N[C@@H](C(=O)NCC(=O)N1CCC[C@@H]1C(=O)N[C@H](Cc1ccc(O)cc1)C(=O)N[C@H](CO)C(=O)N[C@H](Cc1c[nH]c2ccccc12)C(=O)N[C@H](CC(=O)O)C(=O)N[C@H](CC(=O)O)C(=O)N[C@H](CO)C(=O)N1CCC[C@@H]1C(=O)N[C@H](CCC(N)=O)C(=O)N[C@H](CC(=O)O)C(=O)N[C@H](CC(N)=O)C(=O)N[C@H](Cc1ccc(O)cc1)C(=O)N[C@H](CCSC)C(=O)N[C@H](CC(=O)O)C(=O)N[C@H](CO)C(N)=O)C(C)C) [H1H3s‐allD]		1.9
